# How the values were obtained:
# MS2 coat protein [1] = assay: apparent KD of MS2 coat protein, switch OFF state (with FMN for OFF switches, without FMN for ON switches); designed switch direction (-1 OFF switch, 1 ON switch): -1; higher = weaker reporter binding; details: FMN input: 0 or 200 uM; Eterna round: R93 (includes R88 designs)
# Procedure, shortened: (§1)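 Apparent KD is reported per design as the median of normalised binding-curve fits across its clusters. The RNA switches were made by on-chip transcription from Illumina sequencing clusters. SNAP-549-labelled MS2 coat protein was then added in twofold steps (0.7 or 1.5 nM to 3 µM; 0.8–1.5 h to 10–20 min per step) in 100 mM Tris-HCl pH 7.5, 80 mM KCl, 4 mM MgCl2, without or with constant ligand.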
# MS2 coat protein [2] = assay: apparent KD of MS2 coat protein, switch ON state; designed switch direction (-1 OFF switch, 1 ON switch): -1; higher = weaker reporter binding; details: FMN input: 0 or 200 uM; Eterna round: R93 (includes R88 designs)
# Procedure, shortened: as §1
# MS2 coat protein [3] = assay: apparent KD of MS2 coat protein; designed switch direction (-1 OFF switch, 1 ON switch): 1; higher = weaker reporter binding
# Procedure, shortened: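 An oligonucleotide input, 200 uM small-molecule ligand, or no input was present during titration of SNAP-549-labelled MS2 coat protein, which was doubled from 0.7 or 1.5 nM to 3 µM. Designed RNA switches had been transcribed on Illumina chips by stalled E. coli RNA polymerase. Apparent KD per design is the median over clusters of curves fitted to normalised cluster fluorescence.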
# [4] = input ligand: microRNA oligo, concentration not stated
# [5] = Eterna round: R95, input ligand: FMN 200 uM
# [6] = Eterna round: R95, input ligand: microRNA oligo, concentration not stated
# [7] = Eterna round: R95, input ligand: none
sequence,measurement,setting,value
AAAUACUAAGGAUAUACAUGAGGAUCACCCAUGUACAAACCCGUGGAACGGAUCCUUAGUAGAAGGUGGACGAA [Onquerar],apparent KD of MS2 coat protein,MS2 coat protein [1],0.0139 µM
same,apparent KD of MS2 coat protein,MS2 coat protein [2],0.0136 µM
AGCUAGUCAGGAUAUACGAACAUGUCAAAAGACGUGAAUAAACAUGAGGAUCACCCAUGUAGAAGGGACUAGCA [Mat - Exclusion 2 - JL-Eli mod - D53],apparent KD of MS2 coat protein,MS2 coat protein [1],0.0148 µM
same,apparent KD of MS2 coat protein,MS2 coat protein [2],0.0183 µM
AAAAAGAUAGGAUAUACGUACAUGUCAAAAGACGUGAAGGGACAUGAGGAUCACCCAUGUAGAAGGAUUAAAAA [JL Wide Open 40],apparent KD of MS2 coat protein,MS2 coat protein [1],0.0201 µM
same,apparent KD of MS2 coat protein,MS2 coat protein [2],0.0316 µM
AAAAAAGGAGGAUAUACGUACAUGUCAAAAGACGUGAAGGGACAUGAGGAUCACCCAUGUAGAAGGUCUAAAAA [JL Part Open 36],apparent KD of MS2 coat protein,MS2 coat protein [1],0.0179 µM
same,apparent KD of MS2 coat protein,MS2 coat protein [2],0.0345 µM
UCGAUGUCAGGAUAUGUGUAAAGAAUAAAACAAAUAACAACACAGAAGGGACAUGAGGAUCACCCAUGUUACGA [May 42],apparent KD of MS2 coat protein,MS2 coat protein [1],0.0862 µM
same,apparent KD of MS2 coat protein,MS2 coat protein [2],0.0422 µM
AAAGGACGAGGAUAUACAUGAGGAUCACCCAUGUAAAAAACAUAAUAAAAGAAUAUAUGUAGAAGGCGUCCAAA [Ruby 59],apparent KD of MS2 coat protein,MS2 coat protein [1],0.0178 µM
same,apparent KD of MS2 coat protein,MS2 coat protein [2],0.0187 µM
AGAACGUCAGGAUAUCCAACAACAAGUAAAUAGAGAAGAAGGGAGAAGGGACAUGAGGAUCACCCAUGUAAGAA [e4-2],apparent KD of MS2 coat protein,MS2 coat protein [1],0.0299 µM
"CCAAUGUACAAUUUAGAUCUACAUGAGGAUCACCCAUGUACAGAGGAUAUCAGCUCGAAUAGAGCUGAGAAGGCUGAAUUAAUU [SSNG3/3-A1] (Eterna round: R96, puzzle: Same State NG 3)",apparent KD of MS2 coat protein,MS2 coat protein [3]; input ligand: FMN 200 uM,0.0882 µM
same,apparent KD of MS2 coat protein,MS2 coat protein [3]; [4],0.153 µM
same,apparent KD of MS2 coat protein,MS2 coat protein [3]; input ligand: none,0.226 µM
"ACCGCGUUUCGCGCCUACAUGAGGAUCACCCAUGUUUGUAGGCAGGAUAUCGUCCGCUCUGCGGGCGAGAAGGGCUGUUGUGGU [salish99_SSNG3_R04_028] (Eterna round: R96, puzzle: Same State NG 3)",apparent KD of MS2 coat protein,MS2 coat protein [3]; input ligand: FMN 200 uM,0.0493 µM
same,apparent KD of MS2 coat protein,MS2 coat protein [3]; [4],0.0429 µM
same,apparent KD of MS2 coat protein,MS2 coat protein [3]; input ligand: none,0.0608 µM
GCCCAUAGUAUAUGGGUACAAGCUUUUUGACAUGAGGAUCACCCAUGUACUCGUCUUAUGUGCAGUCCGUAGACUGC [JL-shm-2.18 Brourd mod] (puzzle: Sensor for hsa-mir-208a),apparent KD of MS2 coat protein,MS2 coat protein [3]; [5],0.0619 µM
same,apparent KD of MS2 coat protein,MS2 coat protein [3]; [6],0.0153 µM
same,apparent KD of MS2 coat protein,MS2 coat protein [3]; [7],0.0666 µM
UGGAUCUAGGCUUGCCUGGGUCCAUGUUGACAUGAGGAUCACCCAUGUGUAUUUUUUUUGCUUUUUGUUUGUCAACA [JL A Humble Attempt mod 4] (puzzle: Sensor for hsa-mir-208a),apparent KD of MS2 coat protein,MS2 coat protein [3]; [5],0.0315 µM
same,apparent KD of MS2 coat protein,MS2 coat protein [3]; [6],0.0167 µM
same,apparent KD of MS2 coat protein,MS2 coat protein [3]; [7],0.034 µM
"UGUUAGUAGACAGGAUAUUGAAUGUUAAGUAUUAACAUGAGGAUCACCCAUGUAUUAGAUUGGUACAAGAAGGGUCAAGUAAGU [JR_SSNG2_Sub011] (Eterna round: R96, puzzle: Same State NG 2)",apparent KD of MS2 coat protein,MS2 coat protein [3]; input ligand: FMN 200 uM,0.38 µM
same,apparent KD of MS2 coat protein,MS2 coat protein [3]; [4],0.539 µM
same,apparent KD of MS2 coat protein,MS2 coat protein [3]; input ligand: none,0.247 µM
GAUUAACAUGAGGAUCACCCAUGUGUGAAUAUGGGAGGAUAUACGUGGACCGUAGUCCGCGUAGAAGGCCUAAUUG [JL-ss1-3.20 janelle mod] (puzzle: Same State 1),apparent KD of MS2 coat protein,MS2 coat protein [3]; [6],0.223 µM
AAUAUACAUGAGGAUCACCCAUGUUAGUAAAUGACAGGAUAUCGAAUAAAUAAAUAAUAACGAGAAGGGUCUAAUA [JMF's solution 3] (puzzle: Same State 1),apparent KD of MS2 coat protein,MS2 coat protein [3]; [5],0.0159 µM
same,apparent KD of MS2 coat protein,MS2 coat protein [3]; [6],0.0303 µM
same,apparent KD of MS2 coat protein,MS2 coat protein [3]; [7],0.0208 µM
"GGUAGGUUACUACCAAACAUGAGGAUCACCCAUGUAAGUGGGAAGGAUAUGGUACCUUUUAGGUACCAGAAGGUCCAUAUAGUA [JL Fiskers NG3ss - 2 mod 10] (Eterna round: R96, puzzle: Same State NG 3)",apparent KD of MS2 coat protein,MS2 coat protein [3]; input ligand: FMN 200 uM,0.254 µM
same,apparent KD of MS2 coat protein,MS2 coat protein [3]; [4],0.783 µM
same,apparent KD of MS2 coat protein,MS2 coat protein [3]; input ligand: none,1 µM
